The results in this text go back to the RNAGym collection of RNA variant scans (doi:10.7554/elife.80360).

First the molecules themselves.
B1: CPEB3 Ribozyme (parent)
chain: GGGGGCCACAGCAGAAGCGUUCACGUCGCGGCCCCUGUCAGAUUCUGGUGAAUCUGCGAAUUCUGCUGU

The variants in this series derive from B1. Put plainly: self-cleavage, relative activity (ratio to wild type); higher = more cleavage; co-transcriptional.
As to C45U U61G, the self-cleavage was determined as 0.897.
On to U44G U62A, for which the self-cleavage is 0.908.
Turning to U44G U62G, the self-cleavage came to 0.777.
In the case of U46A C63G, the self-cleavage turned out to be 0.838.
In the case of U46A C63A, the self-cleavage is 0.908.
Take U44A U62A: the self-cleavage turned out to be 0.838.
On to U44C G47C, for which the self-cleavage was determined as 0.963.
The result for U43G G68C reads 0.902; that for U43A U53A, 0.946.
For U43A U53C the value was 0.795; for C45G U62A, 0.939; for C45U A59C, 0.72.
In the case of U46A, the self-cleavage was determined as 1.
For U46C the value was 0.986; for A42G U69A, 1.01.
For U43C G68A, the self-cleavage was 1.03.
With U43C G68C, the self-cleavage was found to be 1.01.
Turning to A42G A60U, the self-cleavage worked out at 0.329.
A42G A60C: the self-cleavage was found to be 0.405.
Turning to U44C G68U, the self-cleavage was determined as 0.987.
Take U43A C63U: the self-cleavage was found to be 0.86.
The result for A42G G50A reads 0.88; that for A42G G50C, 0.789.
The result for A42U U49A reads 0.958; that for U44A U46G, 0.981.
On to U44A U46C, for which the self-cleavage was 0.993.
For the variant U44C U46G, the self-cleavage was found to be 0.98.
For the variant U44A G48C, the self-cleavage was 1.01.
With U44A G48U, the self-cleavage turned out to be 0.982.
Take A42U A51G: the self-cleavage turned out to be 0.933.
As for U43A A51C, the self-cleavage worked out at 0.933.
As for A42U C66G, the self-cleavage amounted to 0.682.
Take A42C U46C: the self-cleavage is 0.895.
On to C45U C66U, for which the self-cleavage was 0.984.
For U43C C54A, the self-cleavage turned out to be 0.734.
As to U43G U62A, the self-cleavage worked out at 0.529.
U43G U62C: the self-cleavage is 0.437.
For U43A U61A, the self-cleavage worked out at 0.651.
For U43A U61G the value was 0.485; for U44G C54A, 0.596; for U43A A52C, 0.991.
As to U43A A52G, the self-cleavage is 1.
As for U44A C66A, the self-cleavage is 0.758.
U44C G65U: the self-cleavage was 0.488.
As for U44C G65A, the self-cleavage stood at 0.519.
Regarding U43A C57G, the self-cleavage came out at 0.357.
Turning to U44A C54U, the self-cleavage turned out to be 0.923.
Regarding C45U C63G, the self-cleavage worked out at 0.816.
For C45U C63U the value was 1; for U43G C45U, 1.02.
For C45U U53G, the self-cleavage turned out to be 0.9.
As to C45U U53A, the self-cleavage worked out at 0.936.
Consider C45A G58U, for which the self-cleavage was found to be 0.988.
Turning to U43A C54U, the self-cleavage was found to be 0.771.
The result for C45A C54A reads 0.603; that for U43C A52G, 0.965.
As for U43C U55G, the self-cleavage is 0.388.
For U43A G58C the value was 0.901; for A42G U55G, 0.335.
For U46A G47C the value was 1.04; for U46C C57U, 0.279; for U46C C57G, 0.361.
The result for U46A U67A reads 0.972; that for C45A G56A, 0.848; that for U46C A60G, 0.88.
On to U44G G56C, for which the self-cleavage was determined as 0.44.
Take U44G G56A: the self-cleavage was 0.822.
Turning to U44G U55A, the self-cleavage was determined as 0.432.
For U44G U55G the value was 0.574; for U43C U61A, 0.764; for U43C U61G, 0.562.
For U43C U61C, the self-cleavage turned out to be 0.511.
Turning to U44A G58U, the self-cleavage is 0.951.
For U44A G58A the value was 0.963.
As for C45G C54A, the self-cleavage was 0.579.
C45U G65A: the self-cleavage came to 0.929.
For A42U C57A the value was 0.379; for A42U C57G, 0.298; for C45G G56U, 0.722.
Regarding C45G G56C, the self-cleavage amounted to 0.469.
For U43A A59G the value was 0.782; for U43A A59C, 0.573.
As to U43A A59U, the self-cleavage was determined as 0.579.
In the case of C45A G50C, the self-cleavage turned out to be 0.931.
Regarding C45A G50U, the self-cleavage is 1.04.
Take C45A C63G: the self-cleavage is 0.813.
Turning to C45A C63U, the self-cleavage was 1.02.
In the case of U43G U44G, the self-cleavage worked out at 0.83.
U43C U53C: the self-cleavage stood at 0.855.
The result for U43C U53G reads 0.978; that for U44A U64C, 0.76; that for A42C U61G, 0.518.
Take U44C U62A: the self-cleavage was found to be 0.728.
Regarding U46A C57A, the self-cleavage stood at 0.434.
As for A42U U69G, the self-cleavage is 1.01.
Take C45A A52G: the self-cleavage is 0.97.
The result for C45A A52C reads 0.908; that for U44G G50A, 1; that for U44A G47A, 1.01.
U44A G47U: the self-cleavage is 1.
For U46A U69G, the self-cleavage stood at 1.03.
For the variant C45U U69G, the self-cleavage was found to be 1.05.
Consider U43C G58C, for which the self-cleavage was determined as 0.936.
In the case of U44C U67C, the self-cleavage turned out to be 0.937.
A42U G50A: the self-cleavage is 0.949.
Turning to C45U U49G, the self-cleavage worked out at 1.01.
For C45U U49C, the self-cleavage was determined as 0.986.
For U46A G65A the value was 0.954; for U46A G65C, 0.601.
For the variant A42G G47C, the self-cleavage worked out at 0.941.
Regarding U43C G65U, the self-cleavage is 0.568.
In the case of U43C G65A, the self-cleavage came to 0.732.
U44C U61A: the self-cleavage came out at 0.801.
For U44C U61G, the self-cleavage is 0.49.
U43G C54U: the self-cleavage turned out to be 0.662.
As to C45A G65A, the self-cleavage is 0.814.
The result for U43A C45G reads 0.868.
For U44G C45G the value was 0.855; for U44G C45U, 0.945; for U43G G65A, 0.453.
In the case of A42G U64G, the self-cleavage is 0.693.
As for A42G U64C, the self-cleavage is 0.678.
For the variant A42G U64A, the self-cleavage was determined as 0.602.
Consider C45A U49G, for which the self-cleavage is 1.01.
Regarding C45A U49A, the self-cleavage amounted to 0.997.
The result for U43C U44G reads 0.904; that for C45A U61C, 0.697.
For C45G U69G the value was 1.05; for U43G G58A, 0.881.
Take C45U U64C: the self-cleavage turned out to be 0.905.
As to C45U U64A, the self-cleavage was found to be 0.88.
For C45G U64A the value was 0.908; for U44A A52G, 0.988; for U44A A52C, 0.912.
On to U46A U62A, for which the self-cleavage is 0.937.
In the case of A42U U44C, the self-cleavage was determined as 0.913.
In the case of A42U U44G, the self-cleavage was found to be 0.859.
Regarding C45G A52U, the self-cleavage worked out at 0.998.
The result for C45G A52G reads 0.989; that for C45U G56A, 0.943; that for A42U G58U, 0.965.
The result for U44A U49C reads 0.922; that for U43A U64G, 0.578.
For U43C G47U the value was 0.98.
In the case of A42U G48U, the self-cleavage was 0.99.
In the case of U44C U55G, the self-cleavage was 0.372.
On to U43C G50C, for which the self-cleavage was determined as 0.915.
On to U43C G50U, for which the self-cleavage was 0.99.
Consider U44G U61A, for which the self-cleavage was 0.808.
Regarding U46C C54U, the self-cleavage was 0.975.
Regarding U43C C63U, the self-cleavage came out at 0.914.
In the case of U43C U62G, the self-cleavage is 0.783.
For U43C G48A, the self-cleavage was 1.02.
On to C45G U49A, for which the self-cleavage was 0.987.
For C45A A51U the value was 0.931.
As for U44C U64C, the self-cleavage is 0.565.
Take U46A A51G: the self-cleavage came out at 0.946.
Consider U46A G68U, for which the self-cleavage turned out to be 0.988.
As to C45U U67G, the self-cleavage stood at 1.02.
With C45U U67A, the self-cleavage is 1.01.
As for A42U G47A, the self-cleavage is 0.957.
With C45U A51G, the self-cleavage was found to be 1.01.
Consider C45A G48A, for which the self-cleavage worked out at 1.02.
For U43A U62C the value was 0.668; for A42U U55C, 0.522.
The result for U44C G50A reads 0.939; that for A42G C45G, 0.92.
